Positions count from the first letter of the chain named. Square brackets hold non-standard residues; d marks the D form. Ends that are not written are not given here. Hyp = O=C(O)[C@@H]1C[C@@H](O)CN1
Legend:
Assay in all cases: ITC; 0.5–1 mM peptide titrated into 10–40 μM ecdTDR; 25°C; 10 mM sodium citrate, 100 mM NaCl, pH 5.5; fitted to one set of binding sites; MicroCal Auto-iTC200
Conditions in all cases: both partners purified
[1] = biological target: T1, ecdTDR R138A mutant (Arabidopsis thaliana, UniProt Q9FII5 30-642, R138A)
T1 construct: TDR/PXY of A. thaliana, extracellular domain, residues 30-642; source: High Five insect cells (baculovirus), secreted, purified as the wild type (Ni-NTA, size-exclusion chromatography)
T1 sequence (looked up): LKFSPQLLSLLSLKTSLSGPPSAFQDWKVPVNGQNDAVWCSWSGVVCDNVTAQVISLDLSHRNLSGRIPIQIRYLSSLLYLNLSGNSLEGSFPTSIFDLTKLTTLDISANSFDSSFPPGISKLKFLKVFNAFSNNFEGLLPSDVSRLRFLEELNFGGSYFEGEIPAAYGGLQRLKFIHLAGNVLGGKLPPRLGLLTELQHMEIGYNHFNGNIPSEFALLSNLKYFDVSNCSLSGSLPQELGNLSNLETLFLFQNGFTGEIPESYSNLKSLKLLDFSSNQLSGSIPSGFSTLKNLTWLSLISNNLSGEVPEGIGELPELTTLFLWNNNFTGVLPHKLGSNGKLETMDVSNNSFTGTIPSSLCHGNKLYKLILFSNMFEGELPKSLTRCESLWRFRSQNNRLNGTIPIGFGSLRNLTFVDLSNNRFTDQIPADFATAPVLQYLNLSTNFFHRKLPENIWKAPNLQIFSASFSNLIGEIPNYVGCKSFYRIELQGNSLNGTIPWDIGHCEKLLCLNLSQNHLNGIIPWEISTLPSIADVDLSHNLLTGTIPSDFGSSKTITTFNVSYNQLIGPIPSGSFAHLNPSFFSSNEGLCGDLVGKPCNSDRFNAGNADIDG

[2] = biological target: T2, ecdTDR S187A mutant (Arabidopsis thaliana, UniProt Q9FII5 30-642, S187A)
T2 construct: TDR/PXY of A. thaliana, extracellular domain, residues 30-642; source: High Five insect cells (baculovirus), secreted, purified as the wild type (Ni-NTA, size-exclusion chromatography)
T2 sequence (looked up): T1 sequence (looked up) with A109R, S158A

[3] = biological target: T3, ecdTDR R421A mutant (Arabidopsis thaliana, UniProt Q9FII5 30-642, single alanine substitution of R421)
T3 construct: TDR/PXY of A. thaliana, extracellular domain, residues 30-642; also called single alanine substitution of R421; source: High Five insect cells (baculovirus), secreted, purified as the wild type (Ni-NTA, size-exclusion chromatography)
T3 sequence (looked up): T1 sequence (looked up) with A109R, R392A

Measured: binding result

B1: Tracheary Element Differentiation Inhibitory Factor (TDIF) peptide (peptide)
peptide: HEV[Hyp]SG[Hyp]NPISN
notes: TDIF, the 12-residue CLE peptide processed from CLE41 and CLE44 of A. thaliana; printed as HEV(Hyp)SG(Hyp)NPISN; numbers count on: the 12-residue peptide; CLE44 encodes the same peptide; also called wild type TDIF; wtTDIF; source: synthetic peptide (peptide 2.0)
binds: all assays above
